Patent US20190194664

Tested on: eGFP-Polη

Substance: Rad18 mutant lacking the residues phosphorylated by the Cdc7 kinase (Rad18Δ401-445)
- suppression of UV-dependent Chk1 phosphorylation: this mutant did not either suppress Chk1 phosphorylation
